The target in one test is T1, ECF22_4450.
T1 chain: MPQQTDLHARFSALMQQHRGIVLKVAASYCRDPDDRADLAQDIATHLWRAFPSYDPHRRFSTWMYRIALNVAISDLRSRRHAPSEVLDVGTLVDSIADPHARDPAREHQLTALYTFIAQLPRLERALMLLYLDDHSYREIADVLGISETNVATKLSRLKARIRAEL

For a further test, the target named is T2, ECF16_973.
T2 chain: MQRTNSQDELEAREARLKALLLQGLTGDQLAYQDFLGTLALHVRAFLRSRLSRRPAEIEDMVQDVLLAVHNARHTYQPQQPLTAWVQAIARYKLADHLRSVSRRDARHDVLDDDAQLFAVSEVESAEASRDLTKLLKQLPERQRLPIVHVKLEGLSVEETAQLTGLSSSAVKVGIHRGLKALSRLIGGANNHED

Another test deals with T3, ECF02_2817.
T3 chain: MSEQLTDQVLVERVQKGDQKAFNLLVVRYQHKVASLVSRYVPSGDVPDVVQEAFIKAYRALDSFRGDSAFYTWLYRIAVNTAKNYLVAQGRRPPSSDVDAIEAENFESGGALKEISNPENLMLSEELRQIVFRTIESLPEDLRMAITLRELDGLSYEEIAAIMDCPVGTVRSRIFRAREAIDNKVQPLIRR

For another test, the target named is T4, ECF34_1384.
T4 chain: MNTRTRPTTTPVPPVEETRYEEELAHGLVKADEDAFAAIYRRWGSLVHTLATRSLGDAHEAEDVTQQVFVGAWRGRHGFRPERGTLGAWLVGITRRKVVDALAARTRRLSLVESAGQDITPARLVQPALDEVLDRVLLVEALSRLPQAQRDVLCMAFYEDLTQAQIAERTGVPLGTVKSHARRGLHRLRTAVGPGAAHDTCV

The next test addresses T5, ECF03_1244.
T5 chain: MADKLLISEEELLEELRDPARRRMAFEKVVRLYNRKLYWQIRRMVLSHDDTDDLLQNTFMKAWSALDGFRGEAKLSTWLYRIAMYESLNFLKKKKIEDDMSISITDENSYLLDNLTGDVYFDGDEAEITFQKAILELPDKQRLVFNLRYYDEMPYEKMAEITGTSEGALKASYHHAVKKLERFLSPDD

For another test, the target named is T6, ECF11_987.
T6 chain: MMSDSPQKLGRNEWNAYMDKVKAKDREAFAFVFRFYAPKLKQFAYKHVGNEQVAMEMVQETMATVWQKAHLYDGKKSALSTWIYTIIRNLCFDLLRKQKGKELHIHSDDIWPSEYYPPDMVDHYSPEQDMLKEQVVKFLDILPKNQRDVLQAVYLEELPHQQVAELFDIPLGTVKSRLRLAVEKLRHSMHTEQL

The target of another test is T7, ECF27_4265.
T7 chain: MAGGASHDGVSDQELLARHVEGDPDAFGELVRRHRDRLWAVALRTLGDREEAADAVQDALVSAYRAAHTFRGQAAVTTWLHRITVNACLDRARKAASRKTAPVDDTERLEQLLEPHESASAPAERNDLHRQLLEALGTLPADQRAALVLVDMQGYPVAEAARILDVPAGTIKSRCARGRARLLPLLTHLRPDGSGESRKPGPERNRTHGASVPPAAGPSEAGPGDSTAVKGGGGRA

A further test addresses T8, ECF03_1198.
T8 chain: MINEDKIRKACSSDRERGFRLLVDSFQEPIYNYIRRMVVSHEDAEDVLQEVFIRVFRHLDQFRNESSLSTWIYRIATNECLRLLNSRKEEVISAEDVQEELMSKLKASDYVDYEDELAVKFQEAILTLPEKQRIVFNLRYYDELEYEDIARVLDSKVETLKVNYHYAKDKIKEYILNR

For a further test, the target named is T9, ECF30_35.
T9 chain: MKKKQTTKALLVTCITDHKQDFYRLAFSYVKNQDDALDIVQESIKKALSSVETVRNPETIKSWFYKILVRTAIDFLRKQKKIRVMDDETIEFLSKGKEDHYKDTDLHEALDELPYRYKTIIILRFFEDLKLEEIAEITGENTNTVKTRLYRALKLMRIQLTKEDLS

Another test deals with T10, ECF12_807.
T10 chain: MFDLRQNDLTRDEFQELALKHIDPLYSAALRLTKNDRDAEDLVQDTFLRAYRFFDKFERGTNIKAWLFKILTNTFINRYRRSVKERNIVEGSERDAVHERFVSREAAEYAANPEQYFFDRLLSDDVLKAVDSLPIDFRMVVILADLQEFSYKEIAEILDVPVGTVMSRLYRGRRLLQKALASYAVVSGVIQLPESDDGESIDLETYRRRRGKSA

Another test addresses T11, ECF25_1645.
T11 chain: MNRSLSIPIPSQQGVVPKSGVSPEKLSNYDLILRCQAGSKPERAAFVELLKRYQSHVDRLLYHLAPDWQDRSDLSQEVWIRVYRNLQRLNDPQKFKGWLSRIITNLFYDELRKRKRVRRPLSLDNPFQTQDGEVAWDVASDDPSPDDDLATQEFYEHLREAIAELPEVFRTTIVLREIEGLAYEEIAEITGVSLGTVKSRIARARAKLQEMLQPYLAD

For another test, the target named is T12, ECF02_915.
T12 chain: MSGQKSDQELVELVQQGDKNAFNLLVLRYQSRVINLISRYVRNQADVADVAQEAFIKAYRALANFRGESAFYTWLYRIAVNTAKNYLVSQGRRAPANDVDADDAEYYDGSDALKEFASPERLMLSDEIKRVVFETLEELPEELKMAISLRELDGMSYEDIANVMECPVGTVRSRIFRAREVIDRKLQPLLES

The target of another test is T13, ECF01_3473.
T13 chain: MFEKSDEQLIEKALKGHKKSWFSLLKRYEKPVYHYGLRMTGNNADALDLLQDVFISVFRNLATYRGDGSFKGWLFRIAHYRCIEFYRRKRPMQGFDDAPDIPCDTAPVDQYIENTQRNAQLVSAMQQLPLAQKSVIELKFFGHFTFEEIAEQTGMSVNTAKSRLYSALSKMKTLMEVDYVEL

The values below come from publication PMC3817407.

B1: AS38_1322 (protein)
chain: MSDGNDARPDARDGHDPGSDARDGHDPGSHARDGHDPGAGPFDGHGPGSDAGDGDDAGPDARDGHGAPAGPAGREQRKHPHDTHDMHDTHDTHAGKGTVNHGPAAQGPDAPGADGPATDEAALRAMMQRAVREMEPSDGTLEHLRRAVPARRARKRQALVGAAAAALFLGTAVPALVHVSNATGAGADPSVAGNASQAQGGASQGKDPAGGQSGVAGTGDTPEDRDKADPKETPGGKEPGAATGAPPSGVPSASSPADVPACAPGSLGPAVASSAEPDSTGVVYGSFRVTNVSSDGCTVTGPGTVVTASLGAAEATRIGTARHAAGDAAAGLPDPSLETASLALAPGAAYEVQFAWVPSETCPTTGGTTGGGSGGPSPDPSPTADTTAAGGTSAGGGEAGPTTQLITEDGPAEGSVSVTYTPEGGSGSATATVSNACAGTVYWTGLLADSGSGA
With B1, the fold repression with ECF22_4450 was found to be 6.3; with ECF16_973, 4.09; with ECF02_2817, 4.35; with ECF34_1384, 6.19; in the test with ECF03_1244, 4.75; in the test with ECF11_987, 10.4. In addition, the fold repression with ECF27_4265 was 2.33; in the test with ECF03_1198, 5.72; with ECF30_35 it was 3.08; with ECF12_807, 5.77; with ECF25_1645, 3.94; with ECF02_915, 3.62. Also, the values for the fold repression with ECF26_4464 and in the test with ECF01_3473 were 5.74 and 4.19, respectively.

B2: AS35_3582 (protein)
chain: MNPQKHSASVAEEQMLAHFRAHAPQQPAPALDQAILAAARRQAAHVEPARSWWRRWLEASRRPRWQAAFASLLGVALVLGLVSHNVLDDAERQARPEVAFSDVPLRDGVAGAAAAKRAMRAPAAPAPLSGEMSEPPALLASYASSGEAPQLMAEAAPPAPAALADRPPAQAAQQAKVQAALAGDFVAQARGKAVAVKPEVLDEALGAVLALREQGKTEQAATQLAELQKRFPGENLVERLERLATIAASARKRP
Turning to B2, the fold repression with ECF22_4450 is 8.03; with ECF16_973 it was 3.39; in the test with ECF02_2817 it was 6.36; with ECF34_1384, 9.31; with ECF03_1244, 4.18; with ECF11_987, 9.63. The fold repression turned out to be 2.28 with ECF27_4265; 6.26 with ECF03_1198; 2.03 in the test with ECF30_35; 10.1 in the test with ECF12_807; 3.79 with ECF25_1645; 3.95 with ECF02_915. Also, the fold repression in the test with ECF26_4464 was 10.7; with ECF01_3473, 5.93.

B3: AS37_2513 (protein)
chain: MSSAPATKEEVDFALKVRRALDERAASLPDATTDRLAAARRAALARKKPDAAIVLVPALAGSAGTLELRPPGEPRKSLARRLARAWPLALLLAGLIGIAYWEDMQRTAELADIDAAMLSDNLPLTAYLDHGFNAYLSHTH
On to B3, for which the fold repression with ECF22_4450 was 7.22; in the test with ECF16_973 it was 3.54; with ECF02_2817, 4.08; in the test with ECF34_1384 it was 6.47; in the test with ECF03_1244, 3.44; with ECF11_987, 9.25. Further, the fold repression amounted to 2.71 with ECF27_4265; 4.01 with ECF03_1198; 3.08 in the test with ECF30_35; 9.33 in the test with ECF12_807; 3.92 with ECF25_1645; 2.67 in the test with ECF02_915. Besides, the fold repression with ECF26_4464 turned out to be 7.32; with ECF01_3473, 6.84.
